Data: patent US20220064648, “NOVEL X-[…] FOR THE USE IN DETECTION OF SNAP25” (Galderma Holding S.A., published 2022)

T1: SNAP25 Peptide 3 (PEP3; only a fragment of it is a SNAP25 subsequence) (Homo sapiens, UniProt P60880 SEQ:1-33)
T1 chain: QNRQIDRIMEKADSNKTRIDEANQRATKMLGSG

T2: SNAP25 Peptide 1 (PEP1) (Homo sapiens, UniProt P60880 SEQ:1-35)
T2 chain: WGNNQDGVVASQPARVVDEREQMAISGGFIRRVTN

B1: PEP 3.15 (ssDNA)
DNA: TTTTTAACACGACTGCACTGTGAATCTCGAACGCATCGGGAGTCGTGCCATG
modifications: W indole, X amine, Y phenol modified dU [14, 25, 27, 43 (amine dU), 19, 46 (phenol dU), 36 (indole dU)]
B2: PEP 1.15 (ssDNA)
DNA: TTTTTAAGCCCACCTCTCTGTGGGAGACACAGTTATTGCAGGTGGGCCCATG
modifications: W indole, X amine, Y phenol modified dU [15,19,34 (Y phenol dU); 17,36 (W indole dU)]
B3: PEP 1.12 (ssDNA)
DNA: TTTTTAAGCCCACAAAAGTTCGATCAGCACAGGTCGCCAAAGTCGTGCCATG
modifications: W indole, X amine, Y phenol modified dU [19,24 (W indole dU); 20,34,46 (Y phenol dU); 43 (X amine dU)]
B4: PEP 1.11 (ssDNA)
DNA: TTTTTAACACGACGCCAGTTCGAAGGTCACAGTTATTTGGCGTCGTGCCATG
modifications: W indole, X amine, Y phenol modified dU [19,36,38 (W indole dU); 20,34,46 (Y phenol dU); 27,43 (X amine dU)]
B5: PEP 3.13 (ssDNA)
DNA: TTTTTAACACGACATCACTGTGCACAGCGAACTGCGTTGGCGTCGTGCCATG
modifications: W indole, X amine, Y phenol modified dU [15, 19, 46 (phenol dU), 38 (indole dU), 43 (amine dU)]
B6: PEP 3.04 (ssDNA)
DNA: TTTTTAAGCCCACGGCACTGTGCTCAGCACAGCTCGGGGTGGTGGGCCCATG
modifications: W indole, X amine, Y phenol modified dU [19Y,24W,34Y,40W]
B7: PEP 3.11 (ssDNA)
DNA: TTTTTAAGCCCACTGTCGTTCGGCGGGCGAACGACAGCATGGTCGTGCCATG
modifications: W indole, X amine, Y phenol modified dU [14X,16W,19W,20Y,40W,43X,46Y]
B8: PEP 3.23 (ssDNA)
DNA: TTTTTAAGCCCACCTCACTGTGCAAGTCACAGGTCGGCACCGTGGGCCCATG
modifications: W indole, X amine, Y phenol modified dU [15, 19, 34 (phenol dU), 27 (amine dU)]
B9: PEP 3.08 (ssDNA)
DNA: TTTTTAACACGACGTCACTGTGGTTCTCGAACGCCGCGCTTGTCGTGCCATG
modifications: W indole, X amine, Y phenol modified dU [15Y,19Y,24W,25X,27X,40W,43X,46Y]
B10: PEP 1.08 (ssDNA)
DNA: TTTTTAACACGACCCCGGTTCGACTCCCACAGAGCGGGGGTGTCGTGCCATG
modifications: W indole, X amine, Y phenol modified dU [19 (W indole dU); 20,46 (Y phenol dU); 25,43 (X amine dU)]
B11: PEP 3.02 (ssDNA)
DNA: TTTTTAACACGACAGCACTGTGGTTCGCGAACCTCAAGCTCGTCGTGCCATG
modifications: W indole, X amine, Y phenol modified dU [19Y,24W,25X,34Y,40W,43X,46Y]
B12: PEP 3.22 (ssDNA)
DNA: TTTTTAACACGACATCACTGTGGAAGACACAGGACGTGCGTGTCGTGCCATG
modifications: W indole, X amine, Y phenol modified dU [15, 19, 46 (phenol dU), 43 (amine dU)]
B13: PEP 1.16 (ssDNA)
DNA: TTTTTAACACGACGGGCCTGTGAACACCGAACTGATGGGTCGTGGGCCCATG
modifications: W indole, X amine, Y phenol modified dU [19 (Y phenol dU); 36,40 (W indole dU)]
B14: PEP 3.20 (ssDNA)
DNA: TTTTTAAGCCCACAGTTCTGTGTTCATCACAGAGCAACACTGTGGGCCCATG
modifications: W indole, X amine, Y phenol modified dU [16, 17, 23, 24 (indole dU), 19 (phenol dU), 27 (amine dU)]
B15: PEP 3.06 (ssDNA)
DNA: TTTTTAACACGACCGCACTGTGATAGGCGAACGGTGTGGAGGTCGTGCCATG
modifications: W indole, X amine, Y phenol modified dU [19Y,24W,35Y,43X,46Y]
B16: PEP 1.14 (ssDNA)
DNA: TTTTTAAGCCCACCTGACTGTGGTGGGCACAGTTCGCCATCGTGGGCCCATG
modifications: W indole, X amine, Y phenol modified dU [15,19,34 (Y phenol dU); 24,40 (W indole dU)]
B17: PEP 1.10 (ssDNA)
DNA: TTTTTAACACGACGGGCGTTCGCTGGTCGAACACCAATGCTGTGGGCCCATG
modifications: W indole, X amine, Y phenol modified dU [19,24,38 (W indole dU); 20 (Y phenol dU); 27 (X amine dU)]
B18: PEP 3.14 (ssDNA)
DNA: TTTTTAACACGACACCACTGTGCCCACCACAGTTCACTGAAGTGGGCCCATG
modifications: W indole, X amine, Y phenol modified dU [19, 34 (phenol dU), 38 (indole dU)]
B19: PEP 3.01 (ssDNA)
DNA: TTTTTAACACGACACCACTGTGGTTCTCACAGCTATGTGTTGTGGGCCCATG
modifications: W indole, X amine, Y phenol modified dU [19Y,24W,25X,27X,34Y,36W,38W,40W]
B20: PEP 1.09 (ssDNA)
DNA: TTTTTAACACGACTTATCTGTGTCAGTCGAACGTCGCGGAGGTGGGCCCATG
modifications: W indole, X amine, Y phenol modified dU [14,27 (X amine dU); 15,19,34 (Y phenol dU); 17,23 (W indole dU)]
B21: PEP 1.05 (ssDNA)
DNA: TTTTTAAGCCCACCAAGCTGTGGCGGGCACAGGGCAGCATCGTCGTGCCATG
modifications: W indole, X amine, Y phenol modified dU [19,40,43,46]
B22: PEP 3.05 (ssDNA)
DNA: TTTTTAACACGACGACACTGTGTTGGGCGAACTCCGCTGGGGTGGGCCCATG
modifications: W indole, X amine, Y phenol modified dU [19Y,23W,24W,38W]
B23: PEP 3.17 (ssDNA)
DNA: TTTTTAAGCCCACTAGAGTTCGGCCATCACAGTCCAACACTGTGGGCCCATG
modifications: W indole, X amine, Y phenol modified dU [14, 27 (amine dU), 19 (indole dU), 20 (phenol dU)]
B24: PEP 1.07 (ssDNA)
DNA: TTTTTAACACGACTCAACTGTGATTCCCACAGACTGGGCTCGTGGGCCCATG
modifications: W indole, X amine, Y phenol modified dU [14,25 (X amine dU); 19,35 (Y phenol dU); 24,40 (W indole dU)]
B25: PEP 1.17 (ssDNA)
DNA: TTTTTAACACGACGGCGGTTCGCCTCCCGAACGTTGTTGGAGTCGTGCCATG
modifications: W indole, X amine, Y phenol modified dU [19,38 (W indole dU); 20,34,35,46 (Y phenol dU); 25,43 (X amine dU)]
B26: PEP 1.06 (ssDNA)
DNA: TTTTTAAGCCCACCTCAGTTCGCTCATCGAACGACGATGCTGTGGGCCCATG
modifications: W indole, X amine, Y phenol modified dU [15,20 (Y phenol dU); 19,24,38 (W indole dU); 27 (X amine dU)]
B27: PEP 3.12 (ssDNA)
DNA: TTTTTAACACGACTATCCTGTGAGCAACACAGGGCGGCACTGTGGGCCCATG
modifications: W indole, X amine, Y phenol modified dU [14 (amine dU), 16 (indole dU), 19 (phenol dU)]
B28: PEP 1.03 (ssDNA)
DNA: TTTTTAACACGACGGGGGTTCGGGCAGCGAACAGATGGGCGGTGGGCCCATG
modifications: W indole, X amine, Y phenol modified dU [19,20,36]
B29: PEP 3.18 (ssDNA)
DNA: TTTTTAACACGACACGGGTTCGCACATCACAGAGATACACTGTCGTGCCATG
modifications: W indole, X amine, Y phenol modified dU [19, 36 (indole dU), 20, 46 (phenol dU), 27, 43 (amine dU)]
B30: PEP 1.04 (ssDNA)
DNA: TTTTTAACACGACGCTCCTGTGACAGCCGAACATCATTGGTGTCGTGCCATG
modifications: W indole, X amine, Y phenol modified dU [16,19,34,38,43,46]
B31: PEP 3.24 (ssDNA)
DNA: TTTTTAAGCCCACCAGGGTTCGGGAGCCGAACGCCAGCACTGTCGTGCCATG
modifications: W indole, X amine, Y phenol modified dU [19,20,43,46]
B32: PEP 3.03 (ssDNA)
DNA: TTTTTAACACGACAATGGTTCGGGGGGCGAACGTCACTGTGGTCGTGCCATG
modifications: W indole, X amine, Y phenol modified dU [16W,19W,20Y,34Y,38W,40W,43X,46Y]
B33: PEP 3.19 (ssDNA)
DNA: TTTTTAAGCCCACGCCACTGTGACCATCGAACCACACGGCCGTCGTGCCATG
modifications: W indole, X amine, Y phenol modified dU [19, 46 (phenol dU), 27, 43 (amine dU)]
B34: PEP 3.10 (ssDNA)
DNA: TTTTTAACACGACAGCACTGTGCACAGCACAGCTCAAGGGTGTGGGCCCATG
modifications: W indole, X amine, Y phenol modified dU [19Y,34Y]
B35: PEP 3.07 (ssDNA)
DNA: TTTTTAAGCCCACGACACTGTGGCCAACACAGTACATGCATGTGGGCCCATG
modifications: W indole, X amine, Y phenol modified dU [19Y]
B36: PEP 3.21 (ssDNA)
DNA: TTTTTAAGCCCACTCCGGTTCGTCCATCACAGCCCACTGTGGTCGTGCCATG
modifications: W indole, X amine, Y phenol modified dU [14, 27, 43 (amine dU), 19, 23, 38, 40 (indole dU), 20, 46 (phenol dU)]
B37: PEP 3.16 (ssDNA)
DNA: TTTTTAAGCCCACATCACTGTGCGAGCCACAGATCAGGCAGGTGGGCCCATG
modifications: W indole, X amine, Y phenol modified dU [15, 19, 34 (phenol dU)]

Columns and labels:
[1] = target: T1, SNAP25 Peptide 3 (PEP3; only a fragment …); assay: ELONA
Text: (§1) The data in Table 2 was collected by running direct ELISA assays on the 96 X-aptamers, elucidating their ability to bind SNAP25, SNAP25 fragments (PEP1, PEP2, PEP3, and PEP4), and a negative control. The X-aptamers were biotinylated and immobilized onto streptavidin-coated plates and were utilized as detection molecules. Higher numbers represent strong binding. The negative control peptide is a random peptide to measure the amount of binding that occurs to a random amino acid sequence.

[2] = target: T2, SNAP25 Peptide 1 (PEP1); assay: ELONA
Text: as §1

Binder | binding signal [1] [ELISA signal] | binding signal [2] [ELISA signal]
B1 | 114 | 
B2 |  | 220
B3 |  | 289
B4 |  | 293
B5 | 115 | 
B6 | 276 | 
B7 | 137 | 
B8 | 95 | 
B9 | 207 | 
B10 |  | 357
B11 | 406 | 
B12 | 96 | 
B13 |  | 212
B14 | 97 | 
B15 | 230 | 
B16 |  | 241
B17 |  | 293
B18 | 114 | 
B19 | 503 | 

Binder | binding signal [1] [ELISA signal] | binding signal [2] [ELISA signal]
B20 |  | 337
B21 |  | 641
B22 | 272 | 
B23 | 110 | 
B24 |  | 429
B25 |  | 200
B26 |  | 477
B27 | 118 | 
B28 |  | 677
B29 | 105 | 
B30 |  | 645
B31 | 81 | 
B32 | 338 | 
B33 | 102 | 
B34 | 139 | 
B35 | 219 | 
B36 | 96 | 
B37 | 111 | 
